T1: cynomolgus monkey FcγRIIa1 extracellular domain, C-terminal His-tag (cynomolgus monkey)
T1 construct: also called cyno FcγRIIa1; cynoFcgRIIa1; not shown: His-tag added to C-terminus
T1 chain: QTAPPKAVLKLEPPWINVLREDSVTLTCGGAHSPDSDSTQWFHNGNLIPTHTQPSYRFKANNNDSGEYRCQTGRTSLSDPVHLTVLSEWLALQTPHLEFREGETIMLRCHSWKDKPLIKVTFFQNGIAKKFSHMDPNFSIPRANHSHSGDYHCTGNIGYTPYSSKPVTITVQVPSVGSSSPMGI

T2: cynomolgus monkey FcγRIIa2 extracellular domain, C-terminal His-tag (cynomolgus monkey)
T2 construct: also called cyno FcγRIIa2; cynoFcgRIIa2; not shown: His-tag added to C-terminus
T2 chain: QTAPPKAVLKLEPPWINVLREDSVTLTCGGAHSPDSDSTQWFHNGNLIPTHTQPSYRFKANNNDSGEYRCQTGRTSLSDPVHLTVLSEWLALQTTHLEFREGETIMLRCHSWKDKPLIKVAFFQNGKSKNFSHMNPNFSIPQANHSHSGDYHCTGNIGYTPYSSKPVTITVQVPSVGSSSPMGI

T3: cynomolgus monkey FcγRIIa3 extracellular domain, C-terminal His-tag (cynomolgus monkey)
T3 construct: also called cyno FcγRIIa3; cynoFcgRIIa3; not shown: His-tag added to C-terminus
T3 chain: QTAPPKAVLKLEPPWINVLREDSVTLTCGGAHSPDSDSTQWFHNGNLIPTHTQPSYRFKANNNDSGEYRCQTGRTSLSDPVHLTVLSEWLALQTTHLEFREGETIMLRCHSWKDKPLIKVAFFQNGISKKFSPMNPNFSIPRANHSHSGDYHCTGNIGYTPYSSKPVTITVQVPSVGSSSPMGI

T4: cynomolgus monkey FcγRIIb extracellular domain, C-terminal His-tag (cynomolgus monkey)
T4 construct: also called cyno FcγRIIb; cynoFcγRIIb; not shown: His-tag added to C-terminus
T4 chain: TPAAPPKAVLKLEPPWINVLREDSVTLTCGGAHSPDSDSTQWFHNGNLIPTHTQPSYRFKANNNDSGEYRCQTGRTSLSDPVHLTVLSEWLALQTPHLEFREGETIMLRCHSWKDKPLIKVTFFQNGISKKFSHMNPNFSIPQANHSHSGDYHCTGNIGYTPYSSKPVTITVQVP

T5: human FcγRIIaH extracellular domain, C-terminal His-tag (human, UniProt P12318 34-217)
T5 construct: also called human FcγRIIa (type H); FcgRIIaH; not shown: His-tag added to C-terminus
T5 sequence: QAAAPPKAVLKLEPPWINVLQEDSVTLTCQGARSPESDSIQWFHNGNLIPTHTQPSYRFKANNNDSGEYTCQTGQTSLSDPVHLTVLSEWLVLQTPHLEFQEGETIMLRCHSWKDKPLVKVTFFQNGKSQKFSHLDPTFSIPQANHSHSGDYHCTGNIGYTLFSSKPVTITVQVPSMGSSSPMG

T6: human FcγRIIaR extracellular domain, C-terminal His-tag (human, UniProt P12318 34-217)
T6 construct: also called human FcγRIIa (type R); FcgRIIaR; not shown: His-tag added to C-terminus
T6 chain: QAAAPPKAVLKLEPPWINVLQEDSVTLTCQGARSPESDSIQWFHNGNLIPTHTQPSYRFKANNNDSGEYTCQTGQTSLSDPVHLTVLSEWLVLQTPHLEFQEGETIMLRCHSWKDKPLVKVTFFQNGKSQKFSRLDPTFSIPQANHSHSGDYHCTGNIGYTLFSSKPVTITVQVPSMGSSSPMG

T7: human FcγRIIb extracellular domain, C-terminal His-tag (human, UniProt P31994 43-217)
T7 construct: also called humanFcgRIIb; not shown: His-tag added to C-terminus
T7 sequence: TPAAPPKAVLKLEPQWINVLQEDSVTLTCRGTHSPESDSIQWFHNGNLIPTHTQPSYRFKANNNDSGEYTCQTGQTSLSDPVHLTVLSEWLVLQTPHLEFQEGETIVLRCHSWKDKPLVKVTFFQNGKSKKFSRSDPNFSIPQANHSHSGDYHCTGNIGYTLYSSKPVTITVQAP

B1: M103240H795-SG1079 / M103202L1045-SK1 (antibody)
heavy: QVQLVESGGGLVQPGGSLRLSCAVSGIDLSHDDISWVRQAPGKGLEWVSIISYAGSTYYASWAKGRLTISKDTSKNQVVLTMTNMDPVDTATYYCARGVPAYSHGGDLWGQGTLVTVSSASTKGPSVFPLAPSSKSTSGGTAALGCLVKDYFPEPVTVSWNSGALTSGVHTFPAVLQSSGLYSLSSVVTVPSSSLGTQTYICNVNHKPSNTKVDKKVEPKSCDKTHTCPPCPAPELLNGPSVFLFPPKPKDTLMISRTPEVTCVVVDVSDEDPEVKFNWYVDGVEVHNAKTKPREELYNSTYRVVSVLTVLHRDWLNGKEYKCKVSNKALPKPIEKTISKAKGQPREPQVYTLPPSREEMTKNQVSLTCLVKGFYPSDIAVEWESNGQPENNYKTTPPVLDSDGSFFLYSKLTVKKSRWQQGNVFSCSVMHEALHAHYTRKELSLSP
light: DIVMTQSPATLSLSPGERATLSCTTSQSVYHENWLSWFQQKPGQPPKLLIYWASTLAYGVPSRFSGSGSGTDFTLTISSLQPEDAATYYCAGGYGGGRYAFGQGTKVEIKRTVAAPSVFIFPPSDEQLKSGTASVVCLLNNFYPREAKVQWKVDNALQSGNSQESVTEQDSKDSTYSLSSTLTLSKADYEKHKVYACEVTHQGLSSPVTKSFNRGEC
notes: CH with G236N/H268D/Q295L/Q311R/A330K/D413K/N434A/Q438R/S440E against SG1 (EU numbering); also called MS1032LO19-SG1079
B2: M103240H795-SG1080 / M103202L1045-SK1 (antibody)
heavy: QVQLVESGGGLVQPGGSLRLSCAVSGIDLSHDDISWVRQAPGKGLEWVSIISYAGSTYYASWAKGRLTISKDTSKNQVVLTMTNMDPVDTATYYCARGVPAYSHGGDLWGQGTLVTVSSASTKGPSVFPLAPSSKSTSGGTAALGCLVKDYFPEPVTVSWNSGALTSGVHTFPAVLQSSGLYSLSSVVTVPSSSLGTQTYICNVNHKPSNTKVDKKVEPKSCDKTHTCPPCPAPELLNGPSVFLFPPKPKDTLMISRTPEVTCVVVDVSDEDPEVKFNWYVDGVEVHNAKTKPREELYNSTYRVVSVLTVLHRDWLNGKEYKCKVSNTALPKPIEKTISKAKGQRREPQVYTLPPSREEMTKNQVSLTCLVKGFYPSDIAVEWESNGQPENNYKTTPPVLDSDGSFFLYSKLTVDKSRWQQGNVFSCSVMHEALHAHYTRKELSLSP
light: DIVMTQSPATLSLSPGERATLSCTTSQSVYHENWLSWFQQKPGQPPKLLIYWASTLAYGVPSRFSGSGSGTDFTLTISSLQPEDAATYYCAGGYGGGRYAFGQGTKVEIKRTVAAPSVFIFPPSDEQLKSGTASVVCLLNNFYPREAKVQWKVDNALQSGNSQESVTEQDSKDSTYSLSSTLTLSKADYEKHKVYACEVTHQGLSSPVTKSFNRGEC
notes: CH with G236N/H268D/Q295L/Q311R/K326T/A330K/P343R/N434A/Q438R/S440E against SG1 (EU numbering); also called MS1032LO19-SG1080

Experiments:
[1] = target: T1, cynomolgus monkey FcγRIIa1 …; experiment: SPR (BIACORE), antibody captured, FcγR analyte
Description: (§1) The kinetic analysis of interactions between these antibodies and FcγR was carried out using BIACORE® T200 or BIACORE® 4000 (GE Healthcare). HBS-EP+ (GE Healthcare) was used as the running buffer, and the measurement temperature was set to 25° C. A chip produced by immobilizing Protein A. Protein A/G or mouse anti-human IgG kappa light chain (BD Biosciences) onto a Series S Sensor Chip CM4 or CM5 (GE Healthcare) by the amine-coupling method was used. […] After the measurement, the antibody captured on the chip was washed off by allowing reaction with 10 mM glycine-HCl, pH1.5 and 25 mM NaOH so that the chip was regenerated and used repeatedly. The sensorgrams obtained as measurement results were analyzed by the 1:1 Langmuir binding model using the BIACORE® Evaluation Software to calculate the binding rate constant ka (L/mol/s) and dissociation rate constant kd (l/s), and the dissociation constant KD (mol/L) was calculated from these values. […] Regarding such interactions, KD values were calculated using the following 1:1 binding model described in BIACORE® T100 Software Handbook BR1006-48 Edition AE.

[2] = target: T2, cynomolgus monkey FcγRIIa2 …; experiment: SPR (BIACORE), antibody captured, FcγR analyte
Description: as §1

[3] = target: T3, cynomolgus monkey FcγRIIa3 …; experiment: SPR (BIACORE), antibody captured, FcγR analyte
Description: as §1

[4] = target: T4, cynomolgus monkey FcγRIIb extracellular …; experiment: SPR (BIACORE), antibody captured, FcγR analyte
Description: as §1

[5] = target: T8, cynomolgus monkey FcγRIIIaS extracellular domain, C-terminal His-tag (cynomolgus monkey, UniProt A3RFZ7 21-206 (rhesus entry)); experiment: SPR (BIACORE), antibody captured, FcγR analyte
T8 construct: also called cyno FcγRIIIaS; cynoFcγRIIIaS; not shown: His-tag added to C-terminus
Description: as §1

[6] = target: T5, human FcγRIIaH extracellular domain, …; experiment: SPR (BIACORE), antibody captured, FcγR analyte
Description: as §1

[7] = target: T6, human FcγRIIaR extracellular domain, …; experiment: SPR (BIACORE), antibody captured, FcγR analyte
Description: as §1

[8] = target: T7, human FcγRIIb extracellular domain, …; experiment: SPR (BIACORE), antibody captured, FcγR analyte
Description: as §1

[9] = target: T9, human FcγRIIIaV extracellular domain, C-terminal His-tag (human, UniProt P08637 17-208); experiment: SPR (BIACORE), antibody captured, FcγR analyte
T9 construct: also called FcgRIIIaV; not shown: His-tag added to C-terminus
Description: as §1

[10] = target: T1, cynomolgus monkey FcγRIIa1 …; experiment: SPR (BIACORE); KD of parent SG1 / KD of variant;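 further: relative to parent M103205H795-SG1 carrying the SG1 human heavy chain constant region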
Description: as §1

[11] = target: T2, cynomolgus monkey FcγRIIa2 …; experiment: SPR (BIACORE); KD of parent SG1 / KD of variant;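 further: relative to parent M103205H795-SG1 carrying the SG1 human heavy chain constant region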
Description: as §1

[12] = target: T3, cynomolgus monkey FcγRIIa3 …; experiment: SPR (BIACORE); KD of parent SG1 / KD of variant;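 further: relative to parent M103205H795-SG1 carrying the SG1 human heavy chain constant region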
Description: as §1

[13] = target: T4, cynomolgus monkey FcγRIIb extracellular …; experiment: SPR (BIACORE); KD of parent SG1 / KD of variant;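 further: relative to parent M103205H795-SG1 carrying the SG1 human heavy chain constant region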
Description: as §1

[14] = target: T8, cynomolgus monkey FcγRIIIaS …; experiment: SPR (BIACORE); KD of parent SG1 / KD of variant
Description: as §1

[15] = target: T5, human FcγRIIaH extracellular domain, …; experiment: SPR (BIACORE); KD of parent SG1 / KD of variant
Description: as §1

[16] = target: T6, human FcγRIIaR extracellular domain, …; experiment: SPR (BIACORE); KD of parent SG1 / KD of variant
Description: as §1

[17] = target: T7, human FcγRIIb extracellular domain, …; experiment: SPR (BIACORE); KD of parent SG1 / KD of variant
Description: as §1

[18] = target: T9, human FcγRIIIaV extracellular domain, …; experiment: SPR (BIACORE); KD of parent SG1 / KD of variant
Description: as §1

T8 sequence (A3RFZ7 21-206): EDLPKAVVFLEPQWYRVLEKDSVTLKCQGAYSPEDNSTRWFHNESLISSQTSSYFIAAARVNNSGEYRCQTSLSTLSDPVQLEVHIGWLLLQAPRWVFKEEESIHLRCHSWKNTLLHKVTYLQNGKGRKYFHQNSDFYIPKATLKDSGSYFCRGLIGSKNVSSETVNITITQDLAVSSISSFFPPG
T9 sequence (P08637 17-208 F176V): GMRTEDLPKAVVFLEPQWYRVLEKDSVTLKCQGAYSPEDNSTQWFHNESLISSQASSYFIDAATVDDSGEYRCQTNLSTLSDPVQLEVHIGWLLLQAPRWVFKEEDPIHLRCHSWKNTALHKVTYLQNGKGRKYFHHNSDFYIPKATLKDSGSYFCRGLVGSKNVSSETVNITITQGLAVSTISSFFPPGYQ

Binder | Kd [1] | Kd [2] | Kd [3] | Kd [4] | Kd [5] | Kd [6] | Kd [7] | Kd [8] | Kd [9] | KD fold (SG1 = 1) [10] | KD fold (SG1 = 1) [11] | KD fold (SG1 = 1) [12] | KD fold (SG1 = 1) [13] | KD fold (SG1 = 1) [14] | KD fold (SG1 = 1) [15] | KD fold (SG1 = 1) [16] | KD fold (SG1 = 1) [17] | KD fold (SG1 = 1) [18]
B1 | 1100 nM | 1200 nM | 2100 nM | 300 nM | 3300 nM | 670 nM | 1200 nM | 690 nM | 5200 nM | 3.4 fold | 3.4 fold | 3.2 fold | 5.7 fold | 0.08 fold | 1.4 fold | 0.8 fold | 5.6 fold | 0.18 fold
B2 | 650 nM | 680 nM | 1100 nM | 140 nM | 1400 nM | 450 nM | 560 nM | 370 nM | 4600 nM | 5.8 fold | 6.1 fold | 6.1 fold | 12.6 fold | 0.19 fold | 2.1 fold | 1.7 fold | 10.5 fold | 0.13 fold

Reference: patent US20200317768A1 (published 2020)
